Measured values as given in the supplement of paper PMC9170038.

Tested on: MS2 coat protein
Assay: apparent KD of MS2 coat protein; designed switch direction (-1 OFF switch, 1 ON switch): -1; higher = weaker reporter binding
Outline: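 An oligonucleotide input, 200 uM small-molecule ligand, or no input was present during titration of SNAP-549-labelled MS2 coat protein, which was doubled from 0.7 or 1.5 nM to 3 µM. Designed RNA switches had been transcribed on Illumina chips by stalled E. coli RNA polymerase. Apparent KD per design is the median over clusters of curves fitted to normalised cluster fluorescence.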

[1] = Eterna round: R95, input ligand: microRNA oligo, concentration not stated
[2] = input ligand: microRNA oligo, concentration not stated
[3] = Eterna round: R95, input ligand: FMN 200 uM
[4] = Eterna round: R95, input ligand: none

Sequence | apparent KD of MS2 coat protein [1] | apparent KD of MS2 coat protein (input ligand: FMN 200 uM) | apparent KD of MS2 coat protein (input ligand: none) | also measured
CUUUUGUGAGGAUAUCAGUAGUAAAUAAAUAAAAUUACUAUUGAGAAGGCACAUGAGGAUCACCCAUGUUCCUC [salish99_ex3_r3_088] (puzzle: Exclusion 4) | 33.9 nM |  |  | 
CUUUUGUGAGGAUAUCAGUAGUAAAUAAAUAAAAUUUCUACUGAGAAGGCACAUGAGGAUCACCCAUGUUCCUC [salish99_ex3_r3_085] (puzzle: Exclusion 4) | 36.3 nM |  |  | 
CUUUUGUGAGGAUAUCAGUAGUAAUAAAAUAAAAUAACUACUGAGAAGGCACAUGAGGAUCACCCAUGUUCCUC [Mat - Exclusion 4 - Mod of Salish - D72] (puzzle: Exclusion 4) | 30 nM |  |  | 
CUUUUGUGAGGAUAUCAGUAUUAAAUAAAUAAAAUUACUACUGAGAAGGCACAUGAGGAUCACCCAUGUUCCUC [salish99_ex3_r3_074] (puzzle: Exclusion 4) | 37.5 nM |  |  | 
CUUUUGUGAGGAUAUCUGUAGUAAAAAAAUAAAAUUACUACUGAGAAGGCACAUGAGGAUCACCCAUGUUCCUC [salish99_ex4_r3_035] (puzzle: Exclusion 4) | 34 nM |  |  | 
CUUUUGUGAGGAUAUUAGUAGUAAAUAAAUAUAAUUACUACUGAGAAGGCACAUGAGGAUCACCCAUGUUCCUC [salish99_ex4_r3_058] (puzzle: Exclusion 4) | 35.5 nM |  |  | 
CUUUUGUGAGGAUAUUCAUAGUAGGGUCAUGGCAUUAUUAUGAAGAAGGCACAUGAGGAUCACCCAUGUACCUU [EX4 #49] (Eterna round: R97, puzzle: Exclusion 4) |  | 32.8 nM | 21.5 nM | 
CUUUUUUUUGUGAGGAUAUACUGUUAUUAAAGUUAGUAGAAGGUACAUGAGGAUCACCCAUGUUAAUUACUCUA [JR_BME4_Sub049] (puzzle: Brourd's mod of Exclusion 4) | 14.2 nM |  |  | 
GAAAACCGGUGAGGAUAUUUAUAAUAGAGCUUUAUGAUAUACAUGAGGAUCACCCAUGUUACUUUAAAGAAGGCAUCGGAAAAG [Mat - Exclusion NG 2 - Mod of JL - D94] (Eterna round: R96, puzzle: Exclusion NG 2) |  | 19.1 nM | 18.9 nM | apparent KD of MS2 coat protein [2]: 12.5 nM
GAAAACGCAGAGGAUAUAUCAGAUCAAAGCUGCAUAGAAGGCUGCACAUGAGGAUCACCCAUGUGGUCUUCAAU [Mat - Exclusion 6 - JL Mod - D5] (Eterna round: R97, puzzle: Exclusion 6) |  | 282 nM | 23.8 nM | 
GAAAACGUAGGAUAUACGAAAAAAAAGGGUAGAAAAAAAACACAUGAGGAUCACCCAUGUAGAAGGACGAAAAG [salish99_ex2_r3_094] (puzzle: Exclusion 2) | 38.9 nM |  |  | apparent KD of MS2 coat protein [3]: 66.3 nM; apparent KD of MS2 coat protein [4]: 55.4 nM
GAAAAGGUAGAGGAUAUUUCAGAUCAAAGCUGCAAAGAAGGCUGCACAUGAGGAUCACCCAUGUGGUCUUAAAA [Mod of Quesina 8 - Jieux - Exclusion 6] (Eterna round: R97, puzzle: Exclusion 6) |  | 62.3 nM | 20.9 nM | 
GAAAAGGUAGGAUAUACGAAAAAAAAGGAUAGAAAAAAAACACAUGAGGAUCACCCAUGUAGAAGGACCAAAAG [salish99_ex2_r3_066] (puzzle: Exclusion 2) | 25.5 nM |  |  | apparent KD of MS2 coat protein [3]: 35.2 nM; apparent KD of MS2 coat protein [4]: 23.3 nM
GAAAAGGUAGGAUAUACGAAAAAAAAGGGUAGAAAAAAAACACAUGAGGAUCACCCAUGUAGAAGGACCAAAGG [salish99_ex2_r3_040] (puzzle: Exclusion 2) | 28.5 nM |  |  | apparent KD of MS2 coat protein [3]: 46.3 nM; apparent KD of MS2 coat protein [4]: 26 nM
GAAAAGGUAGGAUAUACGAAAAAAAAGGGUAGAAAAAAAACACAUGAGGAUCACCCAUGUAGAAGGGCCAAAAG [salish99_ex2_r3_032] (puzzle: Exclusion 2) | 34 nM |  |  | apparent KD of MS2 coat protein [3]: 40.2 nM; apparent KD of MS2 coat protein [4]: 45.3 nM
GAAAAGGUAGGAUAUACGAAAAAAAAGGGUAGAAAAAAAAUACAUGAGGAUCACCCAUGUAGAAGGACCAAAAG [salish99_ex2_r3_060] (puzzle: Exclusion 2) | 23.3 nM |  |  | apparent KD of MS2 coat protein [3]: 24.4 nM; apparent KD of MS2 coat protein [4]: 22.5 nM
GAAAAGGUAGGAUAUACGAAAAAAAAGGGUAGAAUAAAAACACAUGAGGAUCACCCAUGUAGAAGGACCAAAAG [salish99_ex2_r3_077] (puzzle: Exclusion 2) | 31.8 nM |  |  | apparent KD of MS2 coat protein [3]: 80.4 nM; apparent KD of MS2 coat protein [4]: 28.9 nM

Sequence | apparent KD of MS2 coat protein [1] | apparent KD of MS2 coat protein (input ligand: FMN 200 uM) | apparent KD of MS2 coat protein (input ligand: none) | also measured
GAAAUCGAAGGAUAUCCGGGUGUCCACAUGAGGAUCACCCAUGUACUGGCCAAUAGCCAGGGAGAAGGUCGCCCAA [EX5 A.3] (Eterna round: R97, puzzle: Exclusion 5) |  | 131 nM | 104 nM | 
GAAGAGUGAGGAUAUACAUGAGGAUCACCCAUGUUAACCUUCUACAGCAUGGACUCGAGUAGAAGGCGCCAAGA [Eternabot (Original) Solution 21] (Eterna round: R97, puzzle: Exclusion 3) |  | 20.3 nM | 25.8 nM | 
GAAUAGAGAGGAUAUGCAAUGAAGGUAGUACGAUAUGUCUGACAUGAGGAUCACCCAUGUAGAAGGCUCAGAUC [EX2 #9] (Eterna round: R97, puzzle: Exclusion 2) |  | 63.8 nM | 29.8 nM | 
GAAUAGGCAGGAUAUACAUGAGGAUCACCCAUGUGCCUGCGAAAGGUACGUUCGAAAGGUAGAAGGGCCUAAAC [ChP 13.04.2015 #6] (puzzle: Exclusion 3) | 12.2 nM |  |  | 
GAAUAGGCAGGAUAUACAUGAGGAUCACCCAUGUGCUUGCGAUCGGCAAGCGAACAACGUAGAAGGGCCUUAAC [ChP 13.04.2015 #13] (puzzle: Exclusion 3) | 15.8 nM |  |  | 
GAAUAGUGAGGAUAUACUUGCAGUGUACCUCGGGUGAUCUCACUUGAGGAUCACCCAAGUAGAAGGCGCGAGGG [EX2 #22] (Eterna round: R97, puzzle: Exclusion 2) |  | 20.8 nM | 9.03 nM | 
GAAUCGCAUGUUAGGAUAUAUCUGUCGGAGUAUGGAUAGAAGGGACAUGAGGAUCACCCAUGUGAAGGCCGUUC [Eternabot (L1) Solution 58] (Eterna round: R97, puzzle: Brourd's mod of Exclusion 4) |  | 210 nM | 90.1 nM | 
GAAUGAGAGCAGGAUAUCUUAUCAAUGUACGAAAGAGAAGGGCUCACAUGAGGAUCACCCAUGUGGUCCUAGAU [jl-ex6-4.66 jandersonlee mod] (Eterna round: R97, puzzle: Exclusion 6) |  | 576 nM | 78.8 nM | 
GACAUGAGGAUCACCCAUGUAAGGGAUGAACUUCUGGGUAGCUAGGAUAUGGCUACAAAUGUGGACCAGAAGGAGCAUACCCUA [Didianveon] (Eterna round: R96, puzzle: Exclusion NG 3) |  | 13 nM | 16.7 nM | apparent KD of MS2 coat protein [2]: 12.7 nM
GACCAGGUAGGAUAUGCAGGGUAGGACUUGAGGAUCACCCAAGUGGCCAAAGUGCGUCCCGCAGAAGGGCCGAACC [Teararatbi] (Eterna round: R97, puzzle: Exclusion 5) |  | 356 nM | 386 nM | 
GACCAGGUAGGAUAUGCAGGGUCGGACUUGAGGAUCACCCAAGUGGCCAAAGUGCGUCCCGCAGAAGGGCCGAAAA [Isisusge] (Eterna round: R97, puzzle: Exclusion 5) |  | 215 nM | 1230 nM | 
GACCCAAGUGUUAGGAUAUCCAGUCGUGGGACCAGGGAGAAGGAACAUGAGGAUCACCCAUGUAAAAUAGAAAC [Anti] (puzzle: Brourd's mod of Exclusion 4) | 22.3 nM |  |  | apparent KD of MS2 coat protein [3]: 137 nM; apparent KD of MS2 coat protein [4]: 22.3 nM
GACUGCUGAGGAUAUACAUGAGGAUCACCCAUGUGCUUCAGCAUCGAAAGAUGCAUUGGUAGAAGGUAGUAGUC [LRO-Excl3-06] (puzzle: Exclusion 3) | 10.9 nM |  |  | 
GACUGCUGAGGAUAUACAUGAGGAUCACCCAUGUGCUUCAGCUACGAAAGUAGCAUUGGUAGAAGGUAGUAGUC [LRO-Excl3-05] (puzzle: Exclusion 3) | 11.5 nM |  |  | 
GACUGCUGAGGAUAUACAUGAGGAUCACCCAUGUGCUUCAGUAUCGAAAGAUACAUUGGUAGAAGGUAGUAGUC [LRO-Excl3-07] (puzzle: Exclusion 3) | 11.1 nM |  |  | 
GACUGCUGAGGAUAUACAUGAGGAUCACCCAUGUGCUUCAGUAUCGAAAGAUACAUUGGUAGAAGGUGGUAGUC [LRO-Excl3-08] (puzzle: Exclusion 3) | 14.9 nM |  |  | 
GACUUCUCUGAGGAUAUUGCAUCACCCGAUCUAUAAGAAGGCAGAACAUGAGGAUCACCCAUGUGGGUUUCUAG [Bingo-Bango-27] (Eterna round: R97, puzzle: Exclusion 6) |  | 40.6 nM | 29.7 nM | 
